The values below come from US6583108B1, “Human bikunin” (Bayer Corporation, dated 2003).

Assay [1] addresses bovine trypsin (bovine) (UniProt P00760).
The target of assay [2] is Factor XIa. Description: enzyme inhibition kinetics, E(OBz)AR-AMC substrate.
Assay [3] has as its target Factor XIa. Description: enzyme inhibition kinetics.
The target of another assay is Factor XIIa. Description: enzyme inhibition kinetics; first preparation of bikunin (7-64).
Assay [4] concerns the target bovine trypsin (bovine) (UniProt P00760). This is another data set of the same source.
Assay [5] addresses bovine pancreatic kallikrein (bovine). Description: enzyme inhibition kinetics; first preparation of bikunin (7-64).
The target of assay [6] is human neutrophil elastase (human, UniProt P08246). Described as above.
In assay [7] the target is bovine trypsin (bovine) (UniProt P00760). The source holds these as a separate data set.
Sequence of bovine trypsin (bovine) (P00760 24-246): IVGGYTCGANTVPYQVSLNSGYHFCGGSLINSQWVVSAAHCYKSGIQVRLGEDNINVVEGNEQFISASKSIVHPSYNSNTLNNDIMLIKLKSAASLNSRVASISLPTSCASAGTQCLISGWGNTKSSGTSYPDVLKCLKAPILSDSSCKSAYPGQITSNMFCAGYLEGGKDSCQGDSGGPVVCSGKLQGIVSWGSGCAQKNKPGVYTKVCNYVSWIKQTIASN
Assay [8] has the same target. The source holds these as a separate data set.
A further assay has as its target Tissue Factor VIIa. Description: enzyme inhibition kinetics; Sf9-derived bikunin (1-170).
Assay [9] concerns the target bovine pancreatic kallikrein (bovine). Described as above.
For assay [10], the target named is Factor XIa. Described as above.
For assay [11], the target named is bovine trypsin (bovine) (UniProt P00760). The source holds these as a separate data set.

Like-named read-outs stand apart in the source and are kept apart here.

With synthetic placental bikunin (102-159), the trypsin inhibitory activity, specific activity (U/mg) of the purified refolded peptide in the assay with bovine trypsin (bovine) [1] is 300000 U/mg. For the same molecule, the inhibition constant Ki with Factor XIa [2] and with Factor XIa [3] was 15 nM each time.

With synthetic placental bikunin (7-64), the inhibition constant (Ki) (commonly the equilibrium dissociation constant of an inhibitor or competing ligand from its target) with Factor XIIa was over 300 nM. Molecule “recombinant placental bikunin (102-159) expressed in yeast SC101 (construct #1)” gave an inhibition of trypsin by yeast culture supernatant (applysate) in the assay with bovine trypsin (bovine) [4] of 82%.

B1: synthetic placental bikunin (7-64) (other)
chain: IHDFCLVSKVVGRCRASMPRWWYNVTDGSCQLFVYGGCDGNSNNYLTKEECLKKCATV
B1: the inhibition constant Ki in assay [5] was 0.4 nM; in assay [6], over 100 nM. Besides, the trypsin inhibitory activity, specific activity (U/mg) of the purified refolded peptide with bovine trypsin (bovine) [7] was found to be 294000 U/mg.

B2: placental bikunin 98-159 expressed in yeast (construct #4) (protein)
chain: DMFNYEEYCTANAVTGPCRASFPRWYFDVERNSCNNFIYGGCRGNKNSYRSEEACMLRCFRQ
Turning to B2, the inhibition of trypsin by yeast culture supernatant (applysate) with bovine trypsin (bovine) [4] came to 93%.

B3: placental bikunin 101-159 expressed in yeast (construct #3) (protein)
chain: NYEEYCTANAVTGPCRASFPRWYFDVERNSCNNFIYGGCRGNKNSYRSEEACMLRCFRQ
In turn, B3 gave an inhibition of trypsin by yeast culture supernatant (applysate) with bovine trypsin (bovine) [4] of 25%.

B4: native human placental bikunin isolated from human placenta (protein)
chain: ADRERSIHDFCLVSKVVGRCRASMPRWWYNVTDGSCQLFVYGGCDGNSNNYLTKEECLKKCATVTENATGDLATSRNAADSSVPSAPRRQDSEDHSSDMFNYEEYCTANAVTGPCRASFPRWYFDVERNSCNNFIYGGCRGNKNSYRSEEACMLRCFRQQENPPLPLGSK
modifications: probably glycosylated at the asparagine residue at position 30
For the molecule B4, in the assay with bovine trypsin (bovine) [8], the trypsin inhibitory activity (Units/OD 280) after Superdex 75 was determined as 24500 Units/OD 280.

B5: recombinant placental bikunin (1-170) from baculovirus/Sf9 expression (protein)
chain: B4 chain
modifications: probably glycosylated at the asparagine residue at position 30
Turning to B5, the inhibition constant (Ki) was 800 nM with Tissue Factor VIIa, 0.12 nM in [9] and 3 nM with Factor XIa [10]. In the assay with bovine trypsin (bovine) [11], this molecule registered a trypsin inhibitory activity, specific activity (U/OD) after C18 reverse-phase of 72200 U/OD.
